According to PMC7518097:

Target: Kv7.2 G279S (human)
Test: co-IP; lysates of transfected cells incubated with protein A magnetic beads pre-coated with guinea pig anti-KCNQ2-C2 antibodies; CaM detected by western blot (mouse anti-calmodulin); CaM band normalized to WT

Substance: calmodulin (from UniProt P0DP23 1-149) (natural protein)
- CaM co-immunoprecipitated, normalized to WT (relative to WT): 0.71
